The target in assay [1] is T1, human FcγRIIC expressed on CHO cells (human, UniProt P31995 43-323).
T1 construct: whole, on cells
T1 sequence (looked up): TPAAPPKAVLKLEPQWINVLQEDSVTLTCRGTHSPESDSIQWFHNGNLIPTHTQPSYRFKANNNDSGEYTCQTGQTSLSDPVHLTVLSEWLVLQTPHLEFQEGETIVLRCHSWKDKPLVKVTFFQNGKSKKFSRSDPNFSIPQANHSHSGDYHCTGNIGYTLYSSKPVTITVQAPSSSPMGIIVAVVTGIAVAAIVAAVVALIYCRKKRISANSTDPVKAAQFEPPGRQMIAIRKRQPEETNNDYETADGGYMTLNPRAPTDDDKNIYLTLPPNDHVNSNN
The assay can be described thus: FACS, CHO cells expressing FcγRIIC. The protocol: FIGS. 1A-1W are charts showing binding activity of various IgG variants as indicated to different types of Fcγ receptors expressed on CHO-K1 cells at the various concentrations as indicated. The concentrations of each IgG variant, from left to right, are 0 μg/ml, 0.3 μg/ml, 1 μg/ml, 3 μg/ml, and 10 μg/ml in FIGS. 1A-1C, 1E-J, 1L-1M, 1P-1R, and 1T-1V. For FIGS. 1D, 1K, 10, 1S, and 1w the bars, from left to right, correspond to the following concentrations of IgG variant: 0.3 μg/ml, 1 μg/ml, 3 μg/ml, and 10 μg/ml.
For FACS analysis of the IgG mutants' binding to different FcγRs, FcγR overexpressing CHO cells were harvested using trypsin-EDTA and were suspended in cold staining buffer (3% BSA in PBS). Test IgG mutants, which were diluted in staining buffer, were added into the cells. The mixture was incubated 4° C. for 2 hours, and then washed twice with cold staining buffer and re-suspended in PE-labeled anti-human IgG followed by incubation at 4° C. for 2 hours. The mixture was washed twice with staining buffer and re-suspended in 2% PFA in PBS for FACS.
For orientation: Flow cytometry measures light scatter and fluorescence of single cells or particles in a stream.

For assay [2], the target named is T2, human FcRI protein (MednaBio, E1031) (human, UniProt P12314 16-288, limits assumed).
T2 construct: Bought; loaded on anti-penta-HIS biosensors; also called FcγRI
Nature of the assay: BLI. A digest of the protocol: (§1)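 Binding was measured by biolayer interferometry on an Octet Red96 System. Commercial human Fc receptor proteins were loaded at 20 μg/mL onto anti-penta-HIS biosensors, which were then dipped into an 8-point 1:3 dilution series of test IgG starting at 300 nM in PBS with 0.1% BSA and 0.02% Tween-20, at pH 7.2 for Fcγ receptors and pH 6 for FcRn. Kd, kon and koff were obtained by global fitting, with data fitted to a 1:1 binding model.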

Assay [3] concerns the target T3, human FcRIIIA-F158 protein (MednaBio, E1036) (human, UniProt P08637 17-208).
T3 construct: Bought; also called FcγRIIIA(F)
The assay can be described thus: BLI. A digest of the protocol:
as §1
(In general: BLI is a label-free optical method that tracks binding on a fibre tip over time.)

For assay [4], the target named is T4, human FcRIIA protein (MednaBio, E1033) (human, UniProt P12318 34-218, limits assumed).
T4 construct: Bought; also called FcγRIIA
T4 sequence (looked up): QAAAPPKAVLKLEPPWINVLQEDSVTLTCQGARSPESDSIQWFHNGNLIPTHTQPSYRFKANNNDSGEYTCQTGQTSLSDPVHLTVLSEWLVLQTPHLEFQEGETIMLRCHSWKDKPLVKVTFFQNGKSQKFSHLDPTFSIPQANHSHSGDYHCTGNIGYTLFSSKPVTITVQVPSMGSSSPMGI
Nature of the assay: BLI. A digest of the protocol:
as §1

The target in assay [5] is T5, human FcRIIIB protein (MednaBio, E1037) (human, UniProt O75015 17-200).
T5 construct: Bought; also called FcγRIIIB; FcgRIIIB
The assay can be described thus: BLI. A digest of the protocol: as §1

In assay [6] the target is T6, human FcRn protein (MednaBio, E1032) (human, UniProt P55899 24-297; P61769 21-119).
T6 construct: Bought; assays at pH 6
Nature of the assay: BLI. A digest of the protocol:
as §1

The target in assay [7] is T7, human FcRIIB/C protein (MednaBio, E1034) (human, UniProt P31994 43-217, limits assumed).
T7 construct: Bought as FcRIIB/C; also called FcγRIIB; CD32B
T7 sequence (looked up): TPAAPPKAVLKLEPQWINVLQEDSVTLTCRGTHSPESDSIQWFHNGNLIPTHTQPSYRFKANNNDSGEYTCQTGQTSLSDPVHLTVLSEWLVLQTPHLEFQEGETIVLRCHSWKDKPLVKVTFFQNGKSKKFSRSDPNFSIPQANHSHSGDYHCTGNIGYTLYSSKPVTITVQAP
Nature of the assay: BLI. A digest of the protocol: as §1

Assay [8] concerns the target T8, human FcRIIIA-V158 protein (MednaBio, E1035) (human, UniProt P08637 17-208).
T8 construct: Bought; also called FcγRIIIA(V); FcgRIIIA(V)
Nature of the assay: BLI. A digest of the protocol:
as §1

Assay [9] deals with T2, human FcRI protein (MednaBio, E1031). The assay can be described thus: BLI. A digest of the protocol: as §1
The source holds these as a separate data set.

Assay [10] addresses T3, human FcRIIIA-F158 protein (MednaBio, …). The assay can be described thus: BLI. A digest of the protocol: as §1
This is another data set of the same source.

In assay [11] the target is T4, human FcRIIA protein (MednaBio, E1033). The assay can be described thus: BLI. A digest of the protocol:
as §1
The source holds these as a separate data set.

Assay [12] addresses T5, human FcRIIIB protein (MednaBio, E1037). Nature of the assay: BLI. A digest of the protocol: as §1
This is another data set of the same source.

Assay [13] addresses T6, human FcRn protein (MednaBio, E1032). The assay can be described thus: BLI. A digest of the protocol: as §1
The source holds these as a separate data set.

For assay [14], the target named is T7, human FcRIIB/C protein (MednaBio, E1034). Nature of the assay: BLI. A digest of the protocol: as §1
The source holds these as a separate data set.

The target in assay [15] is T8, human FcRIIIA-V158 protein (MednaBio, …). The assay can be described thus: BLI. A digest of the protocol: as §1
This is another data set of the same source.

These results are taken from patent US20200392227A1 (LYVGEN BIOPHARMA, published 2020).

Positions count from the first letter of the chain named. Read-outs that look alike come from different tables or passages of the source.

T3 sequence (P08637 17-208 limits assumed): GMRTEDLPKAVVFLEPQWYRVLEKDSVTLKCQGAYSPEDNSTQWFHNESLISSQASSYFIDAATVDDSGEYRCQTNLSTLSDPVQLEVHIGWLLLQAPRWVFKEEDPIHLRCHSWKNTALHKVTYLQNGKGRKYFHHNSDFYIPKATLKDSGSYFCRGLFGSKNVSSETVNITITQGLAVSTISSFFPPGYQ
T6 sequence (P55899 24-297 limits assumed, form in doubt, chain 1 of 2): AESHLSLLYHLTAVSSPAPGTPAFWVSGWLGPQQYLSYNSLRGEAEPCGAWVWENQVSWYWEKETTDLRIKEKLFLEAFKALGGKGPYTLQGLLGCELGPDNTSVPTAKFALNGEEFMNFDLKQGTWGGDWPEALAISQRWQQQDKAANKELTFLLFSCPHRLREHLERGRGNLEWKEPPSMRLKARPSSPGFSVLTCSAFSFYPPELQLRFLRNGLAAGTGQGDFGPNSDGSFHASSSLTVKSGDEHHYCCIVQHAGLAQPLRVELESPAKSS
T6 sequence (P61769 21-119 limits assumed, form in doubt, chain 2 of 2): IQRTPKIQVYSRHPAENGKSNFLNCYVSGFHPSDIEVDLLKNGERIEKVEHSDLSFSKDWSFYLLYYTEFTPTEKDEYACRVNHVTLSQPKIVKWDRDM
T5 sequence (O75015 17-200 limits assumed): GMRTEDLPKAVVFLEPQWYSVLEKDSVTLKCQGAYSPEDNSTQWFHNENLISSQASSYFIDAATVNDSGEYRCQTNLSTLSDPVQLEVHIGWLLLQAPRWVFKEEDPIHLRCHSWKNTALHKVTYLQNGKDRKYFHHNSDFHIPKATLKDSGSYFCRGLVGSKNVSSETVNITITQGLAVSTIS
T2 sequence (P12314 16-288 limits assumed): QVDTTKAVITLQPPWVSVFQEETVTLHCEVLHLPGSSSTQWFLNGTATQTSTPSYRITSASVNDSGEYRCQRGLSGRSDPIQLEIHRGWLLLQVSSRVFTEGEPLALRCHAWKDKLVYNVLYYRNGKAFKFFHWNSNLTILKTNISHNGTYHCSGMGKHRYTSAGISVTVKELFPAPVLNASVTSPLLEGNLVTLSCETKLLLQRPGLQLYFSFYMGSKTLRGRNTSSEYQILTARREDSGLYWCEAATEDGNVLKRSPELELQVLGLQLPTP
T8 sequence (P08637 17-208 F176V): as the sequence (P08637 17-208 limits assumed) above, with F160V counted along it

B1: anti-CD137 IgG4 with Fc variant G4m7 (antibody)
heavy: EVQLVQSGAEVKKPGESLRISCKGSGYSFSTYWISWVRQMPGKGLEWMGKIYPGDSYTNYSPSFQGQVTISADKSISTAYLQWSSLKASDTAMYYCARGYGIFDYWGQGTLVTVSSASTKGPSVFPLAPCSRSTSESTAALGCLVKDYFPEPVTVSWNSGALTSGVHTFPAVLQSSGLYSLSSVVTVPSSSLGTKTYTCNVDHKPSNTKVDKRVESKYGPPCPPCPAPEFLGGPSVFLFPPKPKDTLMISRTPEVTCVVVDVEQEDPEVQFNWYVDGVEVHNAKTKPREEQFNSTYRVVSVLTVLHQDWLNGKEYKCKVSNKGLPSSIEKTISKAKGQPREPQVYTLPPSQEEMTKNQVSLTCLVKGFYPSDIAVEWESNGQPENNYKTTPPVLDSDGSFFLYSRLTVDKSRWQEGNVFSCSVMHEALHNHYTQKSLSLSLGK
light: SYELTQPPSVSVSPGQTASITCSGDNIGDQYAHWYQQKPGQSPVLVIYQDKNRPSGIPERFSGSNSGNTATLTISGTQAMDEADYYCATYTGFGSLAVFGGGTKLTVLGQPKAAPSVTLFPPSSEELQANKATLVCLISDFYPGAVTVAWKADSSPVKAGVETTTPSKQSNNKYAASSYLSLTPEQWKSHRSYSCQVTHEGSTVEKTVAPTECS
notes: copies: 2 + 2
As a reminder, the Kd is the constant that tells how readily two partners part at equilibrium. Higher therefore signals a looser complex. The koff is the rate constant with which the complex falls apart. Read a high koff as fast dissociation. In general, kon refers to the second-order rate constant of association. In the case of B1, the binding result was “binds” in assay [1], “no binding (tested: 300 nM)” in assay [3], “no binding (tested: 300 nM)” in assay [5] and “no binding (tested: 300 nM)” in [8]. Further, the Kd in assay [2] worked out at 2.1 nM; in assay [4] it was 210 nM; in assay [6], 23 nM; in [7] it was 45 nM. Besides, the koff was found to be 0.0011 s⁻¹ in assay [2], 0.034 s⁻¹ in [4], 0.012 s⁻¹ in [6] and 0.02 s⁻¹ in assay [7]. The kon in assay [2] was found to be 540000 M⁻¹ s⁻¹; in assay [4], 160000 M⁻¹ s⁻¹; in assay [6] it was 520000 M⁻¹ s⁻¹; in [7], 440000 M⁻¹ s⁻¹.

B2: anti-CD137 IgG1 with Fc variant G1m15 (antibody)
heavy: EVQLVQSGAEVKKPGESLRISCKGSGYSFSTYWISWVRQMPGKGLEWMGKIYPGDSYTNYSPSFQGQVTISADKSISTAYLQWSSLKASDTAMYYCARGYGIFDYWGQGTLVTVSSASTKGPSVFPLAPSSKSTSGGTAALGCLVKDYFPEPVTVSWNSGALTSGVHTFPAVLQSSGLYSLSSVVTVPSSSLGTQTYICNVNHKPSNTKVDKKVEPKSCDKTHTCPPCPAPELLSVFLFPPKPKDTLMISRTPEVTCVVVDVSHEDPEEKFNWYVDGVEVHNAKTKPREEQYNSTYRVVSVLTVLHQDWLNGKEYKCKVSNKALPAPIEKTISKAKGQPREPQVYTLPPSREEMTKNQVSLTCLVKGFYPSDIAVEWESNGQPENNYKTTPPVLDSDGSFFLYSKLTVDKSRWQQGNVFSCSVMHEALHNHYTQKSLSLSPGK
light: B1 light
notes: copies: 2 + 2
Consider B2, for which the Kd worked out at 120 nM in assay [9], 480 nM in [11], 21 nM in assay [13] and 700 nM in assay [14]. Further, the koff is 0.06 s⁻¹ in [9], 0.11 s⁻¹ in assay [11], 0.013 s⁻¹ in [13] and 0.38 s⁻¹ in assay [14]. Moreover, the kon turned out to be 500000 M⁻¹ s⁻¹ in [9], 230000 M⁻¹ s⁻¹ in assay [11], 600000 M⁻¹ s⁻¹ in assay [13] and 540000 M⁻¹ s⁻¹ in assay [14]. In addition, the binding result in assay [10], in assay [12] and in assay [15] was “no binding (tested: 300 nM)” each time.

B3: anti-CD137 IgG1 with Fc variant G1m17 (antibody)
heavy: B2 heavy with S263E, E269V
light: B1 light
notes: copies: 2 + 2
For B3, the Kd in [9] was found to be 88 nM; in [11], 250 nM; in assay [13], 10.7 nM; in assay [14], 180 nM. Moreover, the koff was determined as 0.041 s⁻¹ in assay [9], 0.059 s⁻¹ in [11], 0.00764 s⁻¹ in assay [13] and 0.043 s⁻¹ in assay [14]. The kon was determined as 460000 M⁻¹ s⁻¹ in assay [9], 240000 M⁻¹ s⁻¹ in assay [11], 715000 M⁻¹ s⁻¹ in assay [13] and 240000 M⁻¹ s⁻¹ in assay [14]. In addition, the binding result in [10], in [12] and in assay [15] was “no binding (tested: 300 nM)” in each case.

B4: anti-CD137 IgG4 with Fc variant G4mPE (antibody)
heavy: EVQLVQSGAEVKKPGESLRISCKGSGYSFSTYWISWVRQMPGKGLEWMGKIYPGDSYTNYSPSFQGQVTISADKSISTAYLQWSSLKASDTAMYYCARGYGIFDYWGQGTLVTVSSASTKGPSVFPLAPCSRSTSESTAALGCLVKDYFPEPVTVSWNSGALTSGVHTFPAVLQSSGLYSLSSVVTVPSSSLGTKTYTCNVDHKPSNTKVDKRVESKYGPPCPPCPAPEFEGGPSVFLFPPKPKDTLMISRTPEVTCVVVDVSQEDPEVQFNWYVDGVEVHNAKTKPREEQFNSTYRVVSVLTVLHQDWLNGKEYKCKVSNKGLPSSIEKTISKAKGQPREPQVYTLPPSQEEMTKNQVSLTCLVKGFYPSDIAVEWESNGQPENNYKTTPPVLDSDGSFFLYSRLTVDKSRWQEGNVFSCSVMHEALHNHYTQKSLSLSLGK
light: B1 light
notes: also called G4PE; copies: 2 + 2
Turning to B4, the Kd in assay [2] is 605 nM; in assay [3], 145 nM; in assay [4], 54.5 nM; in [5], 132 nM; in [6], 21.9 nM; in [7], 30.7 nM. Besides, binding in assay [8] was put at a Kd of 202 nM. Also, the koff was 0.0617 s⁻¹ in [2]; 0.0678 s⁻¹ in [3]; 0.0256 s⁻¹ in [4]; 0.0579 s⁻¹ in assay [5]; 0.0152 s⁻¹ in assay [6]; 0.0123 s⁻¹ in [7]. In addition, the off-rate constant (koff) in assay [8] is 0.0596 s⁻¹. Moreover, the kon was 102000 M⁻¹ s⁻¹ in assay [2]; 468000 M⁻¹ s⁻¹ in [3]; 469000 M⁻¹ s⁻¹ in [4]; 437000 M⁻¹ s⁻¹ in assay [5]; 698000 M⁻¹ s⁻¹ in assay [6]; 401000 M⁻¹ s⁻¹ in assay [7]. This molecule showed a kon in assay [8] of 296000 M⁻¹ s⁻¹.

B5: anti-CD137 IgG1 with Fc variant G1m18 (antibody)
heavy: B2 heavy with E269V, L324F
light: B1 light
notes: copies: 2 + 2
As for B5, the Kd in [9] worked out at 260 nM; in [11] it was 140 nM; in assay [13], 12.8 nM; in assay [14], 670 nM. The koff in [9] was found to be 0.21 s⁻¹; in assay [11], 0.029 s⁻¹; in assay [13] it was 0.00803 s⁻¹; in assay [14] it was 0.39 s⁻¹. For the same molecule, the on-rate (kon) in assay [9] came out at 830000 M⁻¹ s⁻¹; in assay [11], 200000 M⁻¹ s⁻¹; in [13], 630000 M⁻¹ s⁻¹; in assay [14], 580000 M⁻¹ s⁻¹. Moreover, the binding result in [10], in assay [12] and in assay [15] was “no binding (tested: 300 nM)” throughout.

B6: anti-CD137 IgG4 with Fc variant G4m8 (antibody)
heavy: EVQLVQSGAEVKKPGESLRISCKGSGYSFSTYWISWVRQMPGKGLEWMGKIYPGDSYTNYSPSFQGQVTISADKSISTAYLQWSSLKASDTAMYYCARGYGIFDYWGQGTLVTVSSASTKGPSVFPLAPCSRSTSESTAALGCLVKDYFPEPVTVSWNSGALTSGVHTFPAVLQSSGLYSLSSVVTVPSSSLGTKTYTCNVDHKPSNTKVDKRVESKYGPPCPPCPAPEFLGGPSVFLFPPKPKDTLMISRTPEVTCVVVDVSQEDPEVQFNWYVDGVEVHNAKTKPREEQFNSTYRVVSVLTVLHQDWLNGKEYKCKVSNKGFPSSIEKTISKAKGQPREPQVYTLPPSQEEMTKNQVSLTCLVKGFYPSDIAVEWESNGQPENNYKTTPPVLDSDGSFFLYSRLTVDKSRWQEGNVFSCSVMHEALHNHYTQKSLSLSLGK
light: B1 light
notes: copies: 2 + 2
With B6, the Kd amounted to 3.8 nM in assay [2], 260 nM in assay [4], 20 nM in assay [6] and 89 nM in assay [7]. The koff amounted to 0.0028 s⁻¹ in assay [2], 0.1 s⁻¹ in assay [4], 0.012 s⁻¹ in assay [6] and 0.048 s⁻¹ in [7]. Moreover, the kon is 720000 M⁻¹ s⁻¹ in assay [2], 390000 M⁻¹ s⁻¹ in [4], 610000 M⁻¹ s⁻¹ in [6] and 530000 M⁻¹ s⁻¹ in [7]. Besides, the binding result in assay [3], in assay [5] and in assay [8] was “no binding (tested: 300 nM)” in each case.
